Experimental data from patent publication US20260049138A1 (Chugai, published 2026).
Changes are numbered by the printed parent chain. Numbers in names are those of the source.

Molecular target: T1, CD3ε homodimer protein (human, UniProt P07766 23-126, limits assumed, sulfo-tag or biotin label in the ECL assays; amine-coupled to the chip in SPR)
T1 construct: also called human CD3ε homodimer protein; CD3 (CD3ε)
Assay: SPR Biacore T200; CD3ε homodimer on CM4 chip;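 further: Single-residue variant antibodies injected as analyte over CD3ε homodimer immobilized by amine coupling, run at 25 °C in HBS-EP+ buffer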

T1 sequence (P07766 23-126 limits assumed): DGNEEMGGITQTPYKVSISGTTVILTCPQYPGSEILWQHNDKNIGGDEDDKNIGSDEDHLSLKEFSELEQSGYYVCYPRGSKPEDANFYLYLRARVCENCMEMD

B1: CE115HA000 V100cD one-arm antibody (antibody, human IgG1, kappa, L234A L235A, N297A, name in Kabat numbering)
heavy: QVQLVESGGGVVQPGRSLRLSCAASGFTFSNAWMHWVRQAPGKGLEWVAQIKAKSNNYATYYAESVKGRFTISRDDSKNSLYLQMNSLKTEDTAVYYCRYVHYGAYYGDDAWGQGTTVTVSSASTKGPSVFPLAPSSKSTSGGTAALGCLVKDYFPEPVTVSWNSGALTSGVHTFPAVLQSSGLYSLSSVVTVPSSSLGTQTYICNVNHKPSNTKVDKKVEPKSCDKTHTCPPCPAPEAAGGPSVFLFPPKPKDTLMISRTPEVTCVVVDVSHEDPEVKFNWYVDGVEVHNAKTKPREEQYASTYRVVSVLTVLHQDWLNGKEYKCKVSNKALPAPIEKTISKAKGQPREPQVYTLPPSRCELTKNQVSLSCAVKGFYPSDIAVEWESNGQPENNYKTTPPVLDSDGSFFLVSKLTVDKSRWQQGNVFSCSVMHEALHNHYTQKSLSLSPDYKDDDDK
chain: EPKSSDKTHTCPPCPAPELLGGPSVFLFPPKPKDTLMISRTPEVTCVVVDVSHEDPEVKFNWYVDGVEVHNAKTKPREEQYNSTYRVVSVLTVLHQDWLNGKEYKCKVSNKALPAPIEKTISKAKGQPREPQVCTLPPSRDELTKNQVSLWCLVKGFYPSDIAVEWESNGQPENNYKTTPPVLDSDGSFFLYSKLTVDKSRWQQGNVFSCSVMHEALHNRYTQKSLSLSP
light: DIVMTQSPLSLPVTPGEPASISCRSSQSLVHSNRNTYLHWYQQKPGQAPRLLIYKVSNRFSGVPDRFSGSGSGTDFTLKISRVEAEDVGVYYCGQGTQVPYTFGQGTKLEIKRTVAAPSVFIFPPSDEQLKSGTASVVCLLNNFYPREAKVQWKVDNALQSGNSQESVTEQDSKDSTYSLSSTLTLSKADYEKHKVYACEVTHQGLSSPVTKSFNRGEC
B1 was tested, and the “ratio of amounts bound Z=Y/X (altered form / CE115HA000)” value was 0.44.

B2: CE115HA000 Y58Q one-arm antibody (antibody, human IgG1, kappa, L234A L235A, N297A, name in Kabat numbering)
heavy: B1 heavy with Y61Q, D109V
chain: B1 chain
light: B1 light
With B2 the “ratio of amounts bound Z=Y/X (altered form / CE115HA000)” value was 0.19.

B3: CE115HA000 Y59D one-arm antibody (antibody, human IgG1, kappa, L234A L235A, N297A, name in Kabat numbering)
heavy: B1 heavy with Y62D, D109V
chain: B1 chain
light: B1 light
For B3, the “ratio of amounts bound Z=Y/X (altered form / CE115HA000)” value was 0.7.

B4: CE115HA000 Y59A one-arm antibody (antibody, human IgG1, kappa, L234A L235A, N297A, name in Kabat numbering)
heavy: B1 heavy with Y62A, D109V
chain: B1 chain
light: B1 light
In the case of B4, the “ratio of amounts bound Z=Y/X (altered form / CE115HA000)” value is reported as 0.85.

B5: CE115HA000 Y58A one-arm antibody (antibody, human IgG1, kappa, L234A L235A, N297A, name in Kabat numbering)
heavy: B1 heavy with Y61A, D109V
chain: B1 chain
light: B1 light
With B5 the “ratio of amounts bound Z=Y/X (altered form / CE115HA000)” value was 0.22.

B6: CE115HA000 Y97G one-arm antibody (antibody, human IgG1, kappa, L234A L235A, N297A, name in Kabat numbering)
heavy: B1 heavy with Y103G, D109V
chain: B1 chain
light: B1 light
In the case of B6, the “ratio of amounts bound Z=Y/X (altered form / CE115HA000)” value is reported as 0.18.

B7: CE115HA000 Y55D one-arm antibody (antibody, human IgG1, kappa, L234A L235A, N297A, name in Kabat numbering)
heavy: B1 heavy with Y58D, D109V
chain: B1 chain
light: B1 light
In the case of B7, the “ratio of amounts bound Z=Y/X (altered form / CE115HA000)” value is reported as 0.45.

B8: CE115HA000 W33D one-arm antibody (antibody, human IgG1, kappa, L234A L235A, N297A, name in Kabat numbering)
heavy: B1 heavy with W33D, D109V
chain: B1 chain
light: B1 light
B8 was tested, and the “ratio of amounts bound Z=Y/X (altered form / CE115HA000)” value was 0.1.

B9: CE115HA000 Y97D one-arm antibody (antibody, human IgG1, kappa, L234A L235A, N297A, name in Kabat numbering)
heavy: B1 heavy with Y103D, D109V
chain: B1 chain
light: B1 light
With B9 the “ratio of amounts bound Z=Y/X (altered form / CE115HA000)” value was 0.24.

B10: CE115HA000 W33F one-arm antibody (antibody, human IgG1, kappa, L234A L235A, N297A, name in Kabat numbering)
heavy: B1 heavy with W33F, D109V
chain: B1 chain
light: B1 light
In the case of B10, the “ratio of amounts bound Z=Y/X (altered form / CE115HA000)” value is reported as 0.65.

B11: CE115HA000 Y97R one-arm antibody (antibody, human IgG1, kappa, L234A L235A, N297A, name in Kabat numbering)
heavy: B1 heavy with Y103R, D109V
chain: B1 chain
light: B1 light
B11 was tested, and the “ratio of amounts bound Z=Y/X (altered form / CE115HA000)” value was 0.27.

B12: CE115HA000 Y59S one-arm antibody (antibody, human IgG1, kappa, L234A L235A, N297A, name in Kabat numbering)
heavy: B1 heavy with Y62S, D109V
chain: B1 chain
light: B1 light
For B12, the “ratio of amounts bound Z=Y/X (altered form / CE115HA000)” value was 0.94.

B13: CE115HA000 Y55S one-arm antibody (antibody, human IgG1, kappa, L234A L235A, N297A, name in Kabat numbering)
heavy: B1 heavy with Y58S, D109V
chain: B1 chain
light: B1 light
With B13 the “ratio of amounts bound Z=Y/X (altered form / CE115HA000)” value was 0.26.

B14: CE115HA000 V100cE one-arm antibody (antibody, human IgG1, kappa, L234A L235A, N297A, name in Kabat numbering)
heavy: B1 heavy with D109E
chain: B1 chain
light: B1 light
For B14, the “ratio of amounts bound Z=Y/X (altered form / CE115HA000)” value was 0.46.

B15: CE115HA000 W33H one-arm antibody (antibody, human IgG1, kappa, L234A L235A, N297A, name in Kabat numbering)
heavy: B1 heavy with W33H, D109V
chain: B1 chain
light: B1 light
In the case of B15, the “ratio of amounts bound Z=Y/X (altered form / CE115HA000)” value is reported as 0.13.

B16: CE115HA000 Y100D one-arm antibody (antibody, human IgG1, kappa, L234A L235A, N297A, name in Kabat numbering)
heavy: B1 heavy with Y106D, D109V
chain: B1 chain
light: B1 light
In the case of B16, the “ratio of amounts bound Z=Y/X (altered form / CE115HA000)” value is reported as 0.52.

B17: CE115HA000 W33A one-arm antibody (antibody, human IgG1, kappa, L234A L235A, N297A, name in Kabat numbering)
heavy: B1 heavy with W33A, D109V
chain: B1 chain
light: B1 light
B17 was tested, and the “ratio of amounts bound Z=Y/X (altered form / CE115HA000)” value was 0.1.

B18: CE115HA000 V100cP one-arm antibody (antibody, human IgG1, kappa, L234A L235A, N297A, name in Kabat numbering)
heavy: B1 heavy with D109P
chain: B1 chain
light: B1 light
In the case of B18, the “ratio of amounts bound Z=Y/X (altered form / CE115HA000)” value is reported as 0.2.

B19: CE115HA000 Y97P one-arm antibody (antibody, human IgG1, kappa, L234A L235A, N297A, name in Kabat numbering)
heavy: B1 heavy with Y103P, D109V
chain: B1 chain
light: B1 light
With B19 the “ratio of amounts bound Z=Y/X (altered form / CE115HA000)” value was 0.11.

B20: CE115HA000 Y59E one-arm antibody (antibody, human IgG1, kappa, L234A L235A, N297A, name in Kabat numbering)
heavy: B1 heavy with Y62E, D109V
chain: B1 chain
light: B1 light
In the case of B20, the “ratio of amounts bound Z=Y/X (altered form / CE115HA000)” value is reported as 0.86.

B21: CE115HA000 W33Y one-arm antibody (antibody, human IgG1, kappa, L234A L235A, N297A, name in Kabat numbering)
heavy: B1 heavy with W33Y, D109V
chain: B1 chain
light: B1 light
In the case of B21, the “ratio of amounts bound Z=Y/X (altered form / CE115HA000)” value is reported as 0.66.

B22: CE115HA000 Y58N one-arm antibody (antibody, human IgG1, kappa, L234A L235A, N297A, name in Kabat numbering)
heavy: B1 heavy with Y61N, D109V
chain: B1 chain
light: B1 light
B22 was tested, and the “ratio of amounts bound Z=Y/X (altered form / CE115HA000)” value was 0.33.

B23: CE115HA000 Y97S one-arm antibody (antibody, human IgG1, kappa, L234A L235A, N297A, name in Kabat numbering)
heavy: B1 heavy with Y103S, D109V
chain: B1 chain
light: B1 light
B23 was tested, and the “ratio of amounts bound Z=Y/X (altered form / CE115HA000)” value was 0.18.

B24: CE115HA000 Y58D one-arm antibody (antibody, human IgG1, kappa, L234A L235A, N297A, name in Kabat numbering)
heavy: B1 heavy with Y61D, D109V
chain: B1 chain
light: B1 light
B24 was tested, and the “ratio of amounts bound Z=Y/X (altered form / CE115HA000)” value was 0.11.

B25: CE115HA000 Y55G one-arm antibody (antibody, human IgG1, kappa, L234A L235A, N297A, name in Kabat numbering)
heavy: B1 heavy with Y58G, D109V
chain: B1 chain
light: B1 light
B25 was tested, and the “ratio of amounts bound Z=Y/X (altered form / CE115HA000)” value was 0.65.

B26: CE115HA000 Y100A one-arm antibody (antibody, human IgG1, kappa, L234A L235A, N297A, name in Kabat numbering)
heavy: B1 heavy with Y106A, D109V
chain: B1 chain
light: B1 light
With B26 the “ratio of amounts bound Z=Y/X (altered form / CE115HA000)” value was 0.9.

B27: CE115HA000 Y58L one-arm antibody (antibody, human IgG1, kappa, L234A L235A, N297A, name in Kabat numbering)
heavy: B1 heavy with Y61L, D109V
chain: B1 chain
light: B1 light
For B27, the “ratio of amounts bound Z=Y/X (altered form / CE115HA000)” value was 0.27.

B28: CE115HA000 Y58S one-arm antibody (antibody, human IgG1, kappa, L234A L235A, N297A, name in Kabat numbering)
heavy: B1 heavy with Y61S, D109V
chain: B1 chain
light: B1 light
With B28 the “ratio of amounts bound Z=Y/X (altered form / CE115HA000)” value was 0.18.

B29: CE115HA000 Y58K one-arm antibody (antibody, human IgG1, kappa, L234A L235A, N297A, name in Kabat numbering)
heavy: B1 heavy with Y61K, D109V
chain: B1 chain
light: B1 light
In the case of B29, the “ratio of amounts bound Z=Y/X (altered form / CE115HA000)” value is reported as 0.3.

B30: CE115HA000 Y97A one-arm antibody (antibody, human IgG1, kappa, L234A L235A, N297A, name in Kabat numbering)
heavy: B1 heavy with Y103A, D109V
chain: B1 chain
light: B1 light
B30 was tested, and the “ratio of amounts bound Z=Y/X (altered form / CE115HA000)” value was 0.16.

B31: CE115HA000 W33L one-arm antibody (antibody, human IgG1, kappa, L234A L235A, N297A, name in Kabat numbering)
heavy: B1 heavy with W33L, D109V
chain: B1 chain
light: B1 light
With B31 the “ratio of amounts bound Z=Y/X (altered form / CE115HA000)” value was 0.1.
